According to patent publication US12427163B2, “Anti-VTCN1 antibodies and antibody drug conjugates” (Bluefin BioMedicine, Inc., priority 2017, dated 2025):

T1: human VTCN1 protein (Homo sapiens, UniProt Q7Z7D3)
T1 construct: His
T1 sequence (Q7Z7D3 25-282): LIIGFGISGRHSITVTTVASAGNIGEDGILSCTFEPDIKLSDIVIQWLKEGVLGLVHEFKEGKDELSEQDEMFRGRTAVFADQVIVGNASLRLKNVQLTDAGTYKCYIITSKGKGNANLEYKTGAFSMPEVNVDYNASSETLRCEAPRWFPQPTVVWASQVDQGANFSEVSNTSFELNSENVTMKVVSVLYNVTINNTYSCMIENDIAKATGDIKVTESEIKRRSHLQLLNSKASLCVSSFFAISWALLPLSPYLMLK

T2: mouse VTCN1 protein (Mus musculus, UniProt Q7TSP5)
T2 construct: His
T2 sequence (Q7TSP5 25-257): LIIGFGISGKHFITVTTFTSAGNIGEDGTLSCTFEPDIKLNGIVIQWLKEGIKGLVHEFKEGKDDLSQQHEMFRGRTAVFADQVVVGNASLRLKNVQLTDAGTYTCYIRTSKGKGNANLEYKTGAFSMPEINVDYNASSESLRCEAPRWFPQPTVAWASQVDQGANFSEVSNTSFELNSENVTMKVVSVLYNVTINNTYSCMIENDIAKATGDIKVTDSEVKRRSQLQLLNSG


Experiments:
Format in all cases: binding
[1] = tested on: cynomolgus monkey VTCN1 protein; assay: Affinity by OCTET, cynomolgus monkey VTCN1; conditions: Table 12
Experimental: (§1) The affinity of antibodies to recombinant VTCN1 was determined on an OCTET™ Red (Pall, ForteBio) instrument. After loading reagents into a 96-well plate, the OCTET™ Red with Protein A-conjugated biosensors was programmed as follows: 30 seconds for baseline #1; 45 seconds to immobilize the antibody; 30 seconds for baseline #2; 300 seconds for association of antibody to recombinant VTCN1-his; and 300 seconds for dissociation of recombinant VTCN1-his from the antibody.

[2] = biological target: T1, human VTCN1 protein; assay: Affinity to recombinant VTCN1-his by OCTET Red (Protein A biosensors); conditions: for Human K(off) / Human k(on): Table 12; for Kdis (human) / Kon (human): Table 5; for K(off) / k(on): Table 9
Experimental: as §1, with “antibody. Table 5 lists the affinity measured for selected antibodies.” for “antibody.”

[3] = biological target: T2, mouse VTCN1 protein; assay: Affinity by OCTET, mouse VTCN1; conditions: Table 12
Experimental: as §1, with “antibody. Table 5 lists the affinity measured for selected antibodies.” for “antibody.”

Kdis (human) [2]	Kon (human) [2]	K(off) [2]	k(on) [2]	Molecule	other results
–	–	2.27E−03	8.21E+04	hu6D9_57A3: humanized 6D9 antibody; VH SEQ ID NO: 220, VL SEQ ID NO: 224 (antibody, V domains shown) VH: QVQLVESGGGVVQPGRSLRLSCAVSGFSLTSYGVQWVRQAPGKGLEWLGVIWSSGSTDYNAAFLSRLTISKDNSKNTVYFQMNSLRAEDTAVYYCARDVTTIVEGFAHWGQGTLVTVSS VL: DIQMTQSPSSLSASVGDRVTITCKASEKVGTYVSWYQQKPGKAPKLLIYGASNRYTGVPSRFSGSGSGTDFTLTISSLQPEDFATYYCGQTYSYPFTFGQGTKLEIK	–
–	–	2.26E−03	6.21E+04	hu6D9_57A4: humanized 6D9 antibody; VH SEQ ID NO: 228, VL SEQ ID NO: 224 (antibody, V domains shown) VH: QVQLVESGPGVVQPGRSLRLSCAVSGFSLTSYGVQWVRQAPGKGLEWLAVIWSSGSTDYNAAFLSRLTISKDNSKSTVYFQMNSLRAEDTAVYYCARDVTTIVEGFAHWGQGTLVTVSS VL: DIQMTQSPSSLSASVGDRVTITCKASEKVGTYVSWYQQKPGKAPKLLIYGASNRYTGVPSRFSGSGSGTDFTLTISSLQPEDFATYYCGQTYSYPFTFGQGTKLEIK	–
–	–	2.89E−03	8.14E+04	hu6D9_57A5: humanized 6D9 antibody; VH SEQ ID NO: 232, VL SEQ ID NO: 224 (antibody, V domains shown) VH: QVQLVESGGGVVQPGRSLRLSCAVSGFSLTSYGVQWVRQAPGKGLEWLAVIWSSGSTDYNAAFLSRLTISKDNSKNTVYFQMNSLRAEDTAVYYCARDVTTIVEGFAHWGQGTLVTVSS VL: DIQMTQSPSSLSASVGDRVTITCKASEKVGTYVSWYQQKPGKAPKLLIYGASNRYTGVPSRFSGSGSGTDFTLTISSLQPEDFATYYCGQTYSYPFTFGQGTKLEIK	–
–	–	3.25E−03	1.20E+05	hu6D9_66B1: humanized 6D9 antibody; VH SEQ ID NO: 236, VL SEQ ID NO: 224 (antibody, V domains shown) VH: QVQLVESGGGVVQPGRSLRLSCAVSGFTFSSYGVQWVRQAPGKGLEWLGVIWSSGSTDYNAAFLSRLTISKDNSKNTVYFQMNSLRAEDTAVYYCARDVTTIVEGFAHWGQGTLVTVSS VL: DIQMTQSPSSLSASVGDRVTITCKASEKVGTYVSWYQQKPGKAPKLLIYGASNRYTGVPSRFSGSGSGTDFTLTISSLQPEDFATYYCGQTYSYPFTFGQGTKLEIK	–

Further lines, the molecule ahead of its results:

Molecule	Kdis (human) [2]	Kon (human) [2]	K(off) [2]	k(on) [2]	other results
13H9_44D2: fully human VTCN1 antibody; VH SEQ ID NO: 272, VL SEQ ID NO: 276 (antibody, V domains shown) VH: QVQLQESGPGLVKPSETLSLTCTVSGGSISSYYWSWIRQPPGKGLEWIGYIYYSGSTNNNPSLKSRVTISVDTSKNQFSLKLISVTAADTAVYYCARVYNNYDWGFDYWGQGTLVTVSS VL: EIVMTQSPATLSVSPGERATLSCRASQSVSSNLAWYQQKPGQAPRLLIYGASTRATGIPARFSGSGSGTEFTLTIRSLQSEDFAVYYCQQYHNWPLTFGGGTKLEIK	–	–	–	–	cynomolgus monkey k(off) [1]: 1.67E−01; cynomolgus monkey k(on) [1]: 1.16E+06; Human K(off) [2]: 1.71E−01; Human k(on) [2]: 1.33E+06; mouse k(off) [3]: 5.79E−01; mouse k(on) [3]: 2.16E+06
6E2: mouse anti-human VTCN1 antibody; VH SEQ ID NO: 33, VL SEQ ID NO: 37 (antibody, V domains shown) VH: QIQLQESGPGLVQPSQSLSITCTVSGFSLTSYGVQWVRQSPGKGLEWLGVIWSGGSTDYNAAFISRLSISKDNSKSQVFFKMNSLQADDTAIYYCARDISTIVEGFAHWGQGTLVTVSS VL: NIVMTQSPKSMSMSVGERVTLSCKASEKVGTYVSWYQQKPEQSPKLLIYGASNRYTGVPDRFTGSGSATDFTLTISSVQAEDLADYHCGQSYRYPFTFGSGTKLEIK	7.46 × 10^−3	9.41 × 10^5	–	–	–
3G10: mouse anti-human VTCN1 antibody; VH SEQ ID NO: 17, VL SEQ ID NO: 21 (antibody, V domains shown) VH: QIQLKESGPGLVQPSQSLSITCTVSGFSLTSYGVHWVRQSPGKGLEWLGVIWSGGYTDYNSAFISRLSISKDNSKSQVFFKMNSLQADDTAIYYCARDITTIVEGFAYWGQGTLVTVSA VL: IIVMTQSPKSMSMSVGERITLNCKASENVGTYVSWYQQKPEQSPKLLIYGASNRYTGVPDHFTGSGSATDFTLTISSVQAEDLADYHCGQTYSYPFTFGSGTKLEIK	1.26 × 10^−2	1.07 × 10^6	–	–	–
7F10: mouse anti-human VTCN1 antibody; VH SEQ ID NO: 137, VL SEQ ID NO: 141 (antibody, V domains shown) VH: QVQLQQSGPGLVQPSQSLSITCTVSGFSLTSYGIHWVRQSPGKGLEWLGVIWSSGSTDYNAAFISRLSISKDNSKSQVFFKMNSLQSDDTAIHYCARDITTIAEGFAYWGQGTLVTVSA VL: NIVMTQSPKSMSMSVGERVTLSCKASENVGTYVSWYQQKPEQSPKLLIYGASNRYTGVPDRFTGSGSATDFTLTISSVQAEDLADYHCGQSYSYPFTFGSGTKLEIK	5.94 × 10^−3	1.15 × 10^6	–	–	–
5A12: mouse anti-human VTCN1 antibody; VH SEQ ID NO: 105, VL SEQ ID NO: 109 (antibody, V domains shown) VH: QVQLQQSGPGLVQPSQSLSITCTVSGFSLTSYGVQWVRQSPGKGLEWLGVIWSSGSTDYNAAFISRLSINKDNSKSQVFFKMNSLQPDDTAIYYCARDITTIVEGFAYWGQGTLVTVSA VL: IIVMTQSPKSMSMSVGERVTLSCKASENVGTYVSWYQQKPEQSPKLLIYGASNRYTGVPDRFTGSGSATDFTLTISSVQAEDLADYHCGQSYSYPFTFGSGTKLEIK	1.64 × 10^−3	3.93 × 10^5	–	–	–
10D1: mouse anti-human VTCN1 antibody; VH SEQ ID NO: 57, VL SEQ ID NO: 61 (antibody, V domains shown) VH: QVQLQESGPELVKPGASVKLSCKASGYIFTDYTIHWLKQSPGQGLEWIGWIYPGSGHTHYNDKFKGKATMTADKSSTTAYMQLSSLTSEDSAVFFCARGGESITTVFPLAYWGQGTLVTVSA VL: DIVMSQSPSSLAVSVGEKVTMSCKSSQSLLYSSDQKNYLAWYQQKPGQSPKLLIYWASTWESGVPDRFIGSGSGTDFTLTVSSVKAEDLAVYYCHQYYSYPPTFGAGTKLEIK	4.04 × 10^−3	9.83 × 10^5	–	–	–
7G7_44C6: fully human VTCN1 antibody; VH SEQ ID NO: 256, VL SEQ ID NO: 260 (antibody, V domains shown) VH: QVQLQESGPGLVKPSETLSLTCTVSGGSISHYYWSWIRQPPGKGLEWIGYIYYSGPTNYNPSLKSRVTISVDTSKNQFSLKLSSVTAADTAVYYCARTYYYGSGSFPDAFDIWGQGTMVTVSS VL: KIVLTQSPATLSLSPGERATLSCRASQSVSSYLAWYQQTPGQAPRLLIYDASNRATGIPARFSVSGSGTDFTLTISSLEPEDFAVYYCQQRSSWPLTFGGGTKLEIK	–	–	–	–	cynomolgus monkey k(off) [1]: 1.50E−01; cynomolgus monkey k(on) [1]: 6.61E+05; Human K(off) [2]: 1.62E−01; Human k(on) [2]: 8.42E+05; Kd [3]: > 500 nM
